Data from patent publication US20200308261 (published 2020).

How the values were obtained:
[1] = molecular target: T1, human Aβ 11pE-42 (human); assay: ELISA sandwich, up to 10 ng/mL
T1 chain: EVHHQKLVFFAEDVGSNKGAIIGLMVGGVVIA

[2] = molecular target: human Aβ 1-40 (human); assay: ELISA sandwich, up to 10 ng/mL
[3] = molecular target: T2, rodent Aβ 3pE-40 (rodent); assay: ELISA sandwich, up to 10 ng/mL
T2 chain: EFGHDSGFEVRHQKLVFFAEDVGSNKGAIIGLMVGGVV

[4] = molecular target: T3, human Aβ 11pE-40 (human); assay: ELISA sandwich, up to 10 ng/mL
T3 chain: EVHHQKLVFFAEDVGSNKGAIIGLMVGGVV

[5] = molecular target: human Aβ 1-42 (human); assay: ELISA sandwich, up to 10 ng/mL
[6] = molecular target: human Aβ 1-40 (human); assay: SPR up to 50 nM

Measured: binding result

B1: BAMB31 (antibody, V domains shown)
VH: EIQLQQSGPELVKPGTSVKVSCKASGHVFTSYDMYWVKQSHGKSLEWIGYIDSDNGDTSYNQKFKGKATLTVDKSSSTAYMHLNSLTSEDSAVYYCAYYRYAMDYWGQGTSVTVSS
VL: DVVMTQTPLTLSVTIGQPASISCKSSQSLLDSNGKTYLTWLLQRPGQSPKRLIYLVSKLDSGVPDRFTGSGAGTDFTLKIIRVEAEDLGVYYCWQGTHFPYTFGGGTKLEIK
not listed: [6]
no binding: all other assays above

B2: BAMB31_2a (mIgG2a) (antibody, V domains shown)
VH: EIQLQQSGPELVKPGTSVKVSCKASGHVFTSYDMYWVKQSHGKSLEWIGYIDSDNGDTSYNQKFKGKATLTVDKSSSTAYMHLNSLTSEDSAVYYCAYYRYAMDYWGQGTSVTVSS
VL: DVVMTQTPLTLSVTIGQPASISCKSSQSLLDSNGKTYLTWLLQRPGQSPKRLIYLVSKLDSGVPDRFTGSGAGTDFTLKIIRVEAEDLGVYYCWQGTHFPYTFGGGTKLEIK
no binding: [6]
